{"source": "paper PMC5320007", "about": "“PpEst is a novel PBAT degrading polyesterase identified by proteomic screening of Pseudomonas pseudoalcaligenes” (Applied Microbiology and Biotechnology, 2016)", "key": {"[1]": {"molecular_target": "T1, PpEst (Ectopseudomonas oleovorans, UniProt W6R2Y2)", "T1 construct": "gene tesA", "assay": "4-NPB hydrolysis inhibition, […] nm", "format": "biochemical"}, "[2]": {"substrate": "CCCC(=O)Oc1ccc([N+](=O)[O-])cc1", "assay": "purified protein", "format": "biochemical, Ectopseudomonas oleovorans", "settings": "20 mM Tris-HCl pH 8.0, 150 mM NaCl, 0.1% Triton X-100, 25 °C, 'Exponential Rise to maximum' fit"}}, "data": [{"molecule": "O=C(O)c1ccc(C(=O)OCCCCO)cc1", "note": "[BuTA, 4-(4-hydroxybutoxycarbonyl)benzoic acid]", "values": [{"measurement": "Ki", "setting": "[1]", "result": 670, "unit": "µM"}]}, {"molecule": "PpEst (Ectopseudomonas oleovorans CECT 5344) (protein) GTLLVVGDSISAAFGLDSRQGWVALLEKRLSEEGFEHSVVNASISGDTSAGGAARLSALLAEHKPELVIIELGGNDGLRGQPPAQLQQNLASMVEQSQQAGAKVLLLGMKLPPNYGVRYTTAFAQVFTDLAEQKQVSLVPFFLEGVGGVPGMMQADGIHPAEAAQEILLDNVWPTLKPML", "values": [{"measurement": "Km", "setting": "[2]", "result": 4.85, "unit": "mM"}, {"measurement": "kcat", "setting": "[2]", "result": 1.98, "unit": "s⁻¹"}]}]}
